Results as given in US20080214462.

Target: factor X (FX) (UniProt P00742)
UniProt P00742, sequence (P00742 whole entry, looked up): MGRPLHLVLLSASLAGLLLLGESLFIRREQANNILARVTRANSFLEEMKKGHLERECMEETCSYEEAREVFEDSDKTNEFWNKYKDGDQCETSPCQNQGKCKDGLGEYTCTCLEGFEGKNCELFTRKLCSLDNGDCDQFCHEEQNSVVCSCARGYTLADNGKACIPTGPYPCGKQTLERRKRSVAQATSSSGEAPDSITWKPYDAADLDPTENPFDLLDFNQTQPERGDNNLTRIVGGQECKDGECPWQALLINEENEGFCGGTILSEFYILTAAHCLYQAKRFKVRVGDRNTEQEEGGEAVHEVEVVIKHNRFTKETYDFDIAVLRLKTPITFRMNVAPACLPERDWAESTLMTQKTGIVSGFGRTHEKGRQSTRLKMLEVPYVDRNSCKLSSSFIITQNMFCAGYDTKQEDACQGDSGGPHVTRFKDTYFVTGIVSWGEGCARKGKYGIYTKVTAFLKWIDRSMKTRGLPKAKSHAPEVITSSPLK

Which aPTT in FIX-depleted plasma: pdFIXa equivalent activity given for 0.5 µg/mL of FIXa protein does the source give for activated plasma derived FIX (pdFIXa) here?
The aPTT in FIX-depleted plasma: pdFIXa equivalent activity given for 0.5 µg/mL of FIXa protein was 1.1 µg/mL.
